Assay results reported in article PMC9865026 (Pathogens, 2022).

Legend:
Assay in all cases: ELISA
Details in all cases: both partners purified
[1] = biological target: A/Perth/16/2009 (H3N2P) recombinant hemagglutinin (HA) (Influenza A virus A/Perth/16/2009 (H3N2), UniProt C6KNH7, strain)
[2] = biological target: A/Aichi/2/68 (H3N2A) recombinant hemagglutinin (HA) (Influenza A virus A/Aichi/2/1968 …, UniProt T2HNI1)
[3] = biological target: A/California/07/2009 (pH1N1) recombinant hemagglutinin (HA) (Influenza A virus A/California/07/2009 …, UniProt C3W5X2, strain)
[4] = biological target: A/New Caledonia/20/1999 (NC H1N1) recombinant hemagglutinin (HA) (Influenza A virus A/New …, UniProt Q6WG00, strain)

Measured: binding result

B1: F045-092 human IgG4 (antibody, V domains shown)
VH: EVQLVESGAEVKKPGSSVKVSCRASGTFYKYAINWVRQAPGQGLEWMGGIIPFFGTTNYAQKFQGRLTITADGSTNTAYMQLDSLRSEDTAVYYCAGPSITESHYCLDCAAKDYYYGLDVWGQGTTVTVSS
VL: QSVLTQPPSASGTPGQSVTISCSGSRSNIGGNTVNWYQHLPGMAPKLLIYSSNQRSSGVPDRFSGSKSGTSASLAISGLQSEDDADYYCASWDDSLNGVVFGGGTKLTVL
notes: also called F045-092 IgG4; source: HEK-293, transfected (pTT5), purified from cell culture supernatant (MabSelect); copies: 2 + 2
binds: [1] | [2]

B2: F045-092 human IgG1 with a mouse IgG1 hinge (antibody, V domains shown)
VH: EVQLVESGAEVKKPGSSVKVSCRASGTFYKYAINWVRQAPGQGLEWMGGIIPFFGTTNYAQKFQGRLTITADGSTNTAYMQLDSLRSEDTAVYYCAGPSITESHYCLDCAAKDYYYGLDVWGQGTTVTVSS
VL: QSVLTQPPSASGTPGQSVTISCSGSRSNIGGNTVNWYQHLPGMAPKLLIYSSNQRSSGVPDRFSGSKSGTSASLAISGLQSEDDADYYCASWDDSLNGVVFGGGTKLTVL
notes: also called human IgG1 with a mouse hinge; copies: 2 + 2
binds: [1] | [2]

B3: CR6261 human IgG1 possessing a mouse IgG1 hinge (antibody, V domains shown)
VH: EVQLVESGAEVKKPGSSVKVSCKASGGPFRSYAISWVRQAPGQGPEWMGGIIPIFGTTKYAPKFQGRVTITADDFAGTVYMELSSLRSEDTAMYYCAKHMGYQVRETMDVWGKGTTVTVSS
VL: QSVLTQPPSVSAAPGQKVTISCSGSSSNIGNDYVSWYQQLPGTAPKLLIYDNNKRPSGIPDRFSGSKSGTSATLGITGLQTGDEANYYCATWDRRPTAYVVFGGGTKLTVL
notes: also called human IgG1 with a mouse IgG1 hinge; copies: 2 + 2
binds: [3] | [4]

B4: CR6261 human IgG4 (antibody, V domains shown)
VH: EVQLVESGAEVKKPGSSVKVSCKASGGPFRSYAISWVRQAPGQGPEWMGGIIPIFGTTKYAPKFQGRVTITADDFAGTVYMELSSLRSEDTAMYYCAKHMGYQVRETMDVWGKGTTVTVSS
VL: QSVLTQPPSVSAAPGQKVTISCSGSSSNIGNDYVSWYQQLPGTAPKLLIYDNNKRPSGIPDRFSGSKSGTSATLGITGLQTGDEANYYCATWDRRPTAYVVFGGGTKLTVL
notes: also called CR6261 IgG4; source: HEK-293, transfected (pTT5), purified from cell culture supernatant (MabSelect); copies: 2 + 2
binds: [3] | [4]

B5: FI6 human IgG1 with a mouse IgG1 hinge (antibody, V domains shown)
VH: QVQLVESGGGVVQPGRSLRLSCAASGFTFSTYAMHWVRQAPGKGLEWVAVISYDANYKYYADSVKGRFTISRDNSKNTLYLQMNSLRAEDTAVYYCAKDSQLRSLLYFEWLSQGYFDYWGQGTLVTVSS
VL: not shown
notes: also called VR-analogous human IgG1 with a mouse IgG1 hinge (FI6); copies: 2 + 2
binds: all assays above

B6: FI6 mouse IgG2a (antibody, V domains shown)
VH: QVQLVESGGGVVQPGRSLRLSCAASGFTFSTYAMHWVRQAPGKGLEWVAVISYDANYKYYADSVKGRFTISRDNSKNTLYLQMNSLRAEDTAVYYCAKDSQLRSLLYFEWLSQGYFDYWGQGTLVTVSS
VL: not shown
notes: also called VR-analogous mouse IgG2a (FI6); source: HEK-293, transfected (pTT5), purified from cell culture supernatant (Protein G); copies: 2 + 2
binds: all assays above

B7: FI6 mouse IgG1 (antibody, V domains shown)
VH: QVQLVESGGGVVQPGRSLRLSCAASGFTFSTYAMHWVRQAPGKGLEWVAVISYDANYKYYADSVKGRFTISRDNSKNTLYLQMNSLRAEDTAVYYCAKDSQLRSLLYFEWLSQGYFDYWGQGTLVTVSS
VL: not shown
notes: also called VR-analogous mouse IgG1 (FI6); source: HEK-293, transfected (pTT5), purified from cell culture supernatant (Protein G); copies: 2 + 2
binds: all assays above

B8: FI6 human IgG4 (antibody, V domains shown)
VH: QVQLVESGGGVVQPGRSLRLSCAASGFTFSTYAMHWVRQAPGKGLEWVAVISYDANYKYYADSVKGRFTISRDNSKNTLYLQMNSLRAEDTAVYYCAKDSQLRSLLYFEWLSQGYFDYWGQGTLVTVSS
VL: not shown
notes: also called VR-analogous human IgG4 (FI6); source: HEK-293, transfected (pTT5), purified from cell culture supernatant (MabSelect); copies: 2 + 2
binds: all assays above
